Laboratory results taken from publication PMC4064709, “Acceleration of an aldo-keto reductase by minimal loop engineering” (Protein Engineering, Design and Selection, 2014).

Legend:
Test in all cases: initial rates of NADH-dependent reduction
Type in all cases: biochemical, Yamadazyma tenuis
CC(=O)c1ccc(Cl)cc1Cl = system: T1, CC(=O)c1ccc(Cl)cc1Cl; conditions: apparent; 300 µM NADH; max 5 mM; W23 and K24 replaced by pentapeptide FAPRE
T1 construct: full-length enzyme; redesigned CtXR expressed in E. coli BL21 (DE3), purified by dye ligand chromatography
Description: (§1) initial rates of NADH-dependent reduction on Candida tenuis xylose reductase (CtXR)

CC(=O)c1ccccc1Cl = system: T2, CC(=O)c1ccccc1Cl; conditions: apparent; 300 µM NADH; max 10 mM; W23 and K24 replaced by pentapeptide FAPRE
T2 construct: full-length enzyme; redesigned CtXR expressed in E. coli BL21 (DE3), purified by dye ligand chromatography
Description: as §1

[1] = system: T3, CCOC(=O)C(=O)c1ccc(C#N)cc1; conditions: apparent; 300 µM NADH; max 10 mM; W23 and K24 replaced by pentapeptide FAPRE
T3 construct: full-length enzyme; redesigned CtXR expressed in E. coli BL21 (DE3), purified by dye ligand chromatography
Description: as §1

[2] = system: T4, NC(=O)C1=CN([C@@H]2O[C@H](COP(=O)(O)OP(=O)(O)OC[C@H]3O[C@@H](n4cnc5c(N)ncnc54)[C@H](O)[C@@H]3O)[C@@H](O)[C@H]2O)C=CC1; conditions: apparent; co-substrate 2′-chloroacetophenone (max 10 mM), as in the wild-type row; W23 and K24 replaced by pentapeptide FAPRE; varied: cofactor
T4 construct: full-length enzyme; redesigned CtXR expressed in E. coli BL21 (DE3), purified by dye ligand chromatography
Description: as §1

[3] = substrate: CC(=O)c1ccc(Cl)cc1Cl; conditions: apparent; 300 µM NADH; incomplete substrate saturation (max 5 mM)
Description: as §1

[4] = substrate: CC(=O)c1ccccc1Cl; conditions: apparent; 300 µM NADH; incomplete substrate saturation (max 10 mM)
Description: as §1

[5] = substrate: CCOC(=O)C(=O)c1ccc(C#N)cc1; conditions: apparent; 300 µM NADH; incomplete substrate saturation (max 10 mM)
Description: as §1

[6] = substrate: NC(=O)C1=CN([C@@H]2O[C@H](COP(=O)(O)OP(=O)(O)OC[C@H]3O[C@@H](n4cnc5c(N)ncnc54)[C@H](O)[C@@H]3O)[C@@H](O)[C@H]2O)C=CC1; conditions: apparent; co-substrate 2′-chloroacetophenone (max 10 mM); varied: cofactor
Description: as §1

Question: How did the Km (CC(=O)c1ccc(Cl)cc1Cl) turn out when “Candida tenuis xylose reductase (CtXR) (Yamadazyma tenuis; INS25PRE/K25A/W24F)” was run?
Answer: 4 ± 1 mM

Question: And the kcat (CC(=O)c1ccc(Cl)cc1Cl)?
Answer: 2.0 ± 0.4 s⁻¹

Question: What about the Km (CC(=O)c1ccccc1Cl) of the same molecule?
Answer: 5 ± 2 mM

Question: What about the kcat (CC(=O)c1ccccc1Cl) of the same molecule?
Answer: 1.0 ± 0.2 s⁻¹

Question: What about the kcat/Km (CC(=O)c1ccccc1Cl) of the same molecule?
Answer: 370 ± 50 M⁻¹ s⁻¹

Question: And the Km [1]?
Answer: 4 ± 1 mM

Question: What about the kcat [1] of the same molecule?
Answer: 17 ± 2 s⁻¹

Question: What about the Km [2] of the same molecule?
Answer: 0.07 ± 0.02 mM

Question: And the kcat [2]?
Answer: 1.0 ± 0.2 s⁻¹

Question: And the kcat/Km [2]?
Answer: 7600 ± 500 M⁻¹ s⁻¹

B1: Candida tenuis xylose reductase (CtXR) (Yamadazyma tenuis) (protein)
chain: MSASIPDIKLSSGHLMPSIGFGCWKLANATAGEQVYQAIKAGYRLFDGAEDYGNEKEVGDGVKRAIDEGLVKREEIFLTSKLWNNYHDPKNVETALNKTLADLKVDYVDLFLIHFPIAFKFVPIEEKYPPGFYCGDGNNFVYEDVPILETWKALEKLVAAGKIKSIGVSNFPGALLLDLLRGATIKPAVLQVEHHPYLQQPKLIEFAQKAGVTITAYSSFGPQSFVEMNQGRALNTPTLFAHDTIKAIAAKYNKTPAEVLLRWAAQRGIAVIPKSNLPERLVQNRSFNTFDLTKEDFEEIAKLDIGLRFNDPWDWDNIPIFV
notes: full-length enzyme; redesigned CtXR expressed in E. coli BL21 (DE3), purified by dye ligand chromatography
Question: B1 was tested. Which Km [3] did it give?
Answer: 6 ± 2 mM

Question: And the kcat [3]?
Answer: 2.7 ± 0.3 s⁻¹

Question: What about the Km [4] of the same molecule?
Answer: 13 ± 4 mM

Question: What about the Km [5] of the same molecule?
Answer: 5 ± 2 mM

Question: What about the kcat [5] of the same molecule?
Answer: 0.4 ± 0.06 s⁻¹

Question: And the kcat/Km [5]?
Answer: 100 ± 10 M⁻¹ s⁻¹

Question: What about the Km [6] of the same molecule?
Answer: 0.11 ± 0.025 mM

Question: What about the kcat [6] of the same molecule?
Answer: 0.8 ± 0.1 s⁻¹

Question: And the kcat/Km [6]?
Answer: 8700 ± 400 M⁻¹ s⁻¹
